Consider nine substances from patent US20150018528A1.

The target of assay [1] is TREM-1-interacting protein on PGN-stimulated neutrophils. Nature of the assay: flow cytometry competition: 2 µg/ml TREM-1 tetramer as probe with 100 µg/ml DCIR COMP; did not compete.
In assay [2] the target is Type II 1.0 PGLYRP1 on HEK293 6E cells (human). Nature of the assay: cell-based or functional assay.
Assay [3] concerns the target TREM-1-interacting protein on PGN-stimulated neutrophils. Kind of assay: flow cytometry competition: 2 µg/ml TREM-1 tetramer as probe with 100 µg/ml TREM COMP.
Assay [4] deals with human TREM-1 on BWZ.36/hTREM-1:DAP12:NFAT-LacZ reporter cells (human) (UniProt Q9NP99). Kind of assay: cell-based or functional assay.
Chain of human TREM-1 on BWZ.36/hTREM-1:DAP12:NFAT-LacZ reporter cells (human) (Q9NP99 21-234): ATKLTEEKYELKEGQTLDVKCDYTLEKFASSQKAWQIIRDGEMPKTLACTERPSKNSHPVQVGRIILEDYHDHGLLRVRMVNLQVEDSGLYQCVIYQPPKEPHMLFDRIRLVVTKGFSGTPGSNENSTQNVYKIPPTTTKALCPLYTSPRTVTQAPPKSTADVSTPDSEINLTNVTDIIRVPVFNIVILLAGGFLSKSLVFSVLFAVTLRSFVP
For assay [5], the target named is Type II PGLYRP1 on HEK293-6E cells (Example 15) (human). Nature of the assay: flow cytometry on transfected HEK293-6E cells.
Chain of Type II PGLYRP1 on HEK293-6E cells (Example 15) (human) (chain, as listed by the source limits assumed, form in doubt): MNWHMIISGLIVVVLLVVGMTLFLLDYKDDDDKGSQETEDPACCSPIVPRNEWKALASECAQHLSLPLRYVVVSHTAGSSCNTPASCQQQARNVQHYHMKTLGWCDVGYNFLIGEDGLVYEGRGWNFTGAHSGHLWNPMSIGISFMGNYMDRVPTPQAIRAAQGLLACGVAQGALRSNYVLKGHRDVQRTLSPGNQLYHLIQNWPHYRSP
The target in assay [6] is Type II PGLYRP3 + 4 on HEK293-6E cells (human). Nature of the assay: flow cytometry on transfected HEK293-6E cells.
Chain of Type II PGLYRP3 + 4 on HEK293-6E cells (human) (Q96LB9 other isoform, or with tags, fused parts or gaps, form in doubt, chain 1 of 2): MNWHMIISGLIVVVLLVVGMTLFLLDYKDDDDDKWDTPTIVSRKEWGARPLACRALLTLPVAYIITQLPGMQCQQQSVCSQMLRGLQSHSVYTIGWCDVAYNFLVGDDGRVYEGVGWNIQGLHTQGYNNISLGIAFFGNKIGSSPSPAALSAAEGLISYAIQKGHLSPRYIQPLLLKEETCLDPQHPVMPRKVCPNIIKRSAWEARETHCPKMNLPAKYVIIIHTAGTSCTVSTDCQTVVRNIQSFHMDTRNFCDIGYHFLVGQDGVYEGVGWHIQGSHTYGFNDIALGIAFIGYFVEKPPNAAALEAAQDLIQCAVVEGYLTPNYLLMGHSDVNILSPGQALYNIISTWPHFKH
Chain of Type II PGLYRP3 + 4 on HEK293-6E cells (human) (Q96LB8 other isoform, or with tags, fused parts or gaps, form in doubt, chain 2 of 2, further chain): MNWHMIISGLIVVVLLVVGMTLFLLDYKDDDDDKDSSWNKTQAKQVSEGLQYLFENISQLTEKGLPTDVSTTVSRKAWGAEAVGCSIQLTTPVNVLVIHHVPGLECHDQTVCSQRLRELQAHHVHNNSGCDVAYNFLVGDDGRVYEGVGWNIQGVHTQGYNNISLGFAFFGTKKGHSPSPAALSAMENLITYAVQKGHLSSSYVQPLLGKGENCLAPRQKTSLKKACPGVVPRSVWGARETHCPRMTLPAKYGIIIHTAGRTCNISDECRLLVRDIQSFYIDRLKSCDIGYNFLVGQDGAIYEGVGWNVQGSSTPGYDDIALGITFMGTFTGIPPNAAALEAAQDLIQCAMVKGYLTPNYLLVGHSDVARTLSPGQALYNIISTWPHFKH
Assay [7] concerns the target Type II PGLYRP3 on HEK293-6E cells (human). Nature of the assay: flow cytometry on transfected HEK293-6E cells.
The target of assay [8] is Type II PGLYRP1 on HEK293-6E cells (Example 15) (human). Kind of assay: flow cytometry on transfected HEK293-6E cells, probe 5 ug/ml; grade of MFI ratio over negative control (++++ is >30).
Assay [9] deals with TREM-1-interacting protein on PGN-stimulated neutrophils. Nature of the assay: flow cytometry on PGN-stimulated neutrophils, 2 µg/ml probe, goat anti hFc/PE.

Chain of Type II PGLYRP3 on HEK293-6E cells (human) (Q96LB9 other isoform, or with tags, fused parts or gaps, form in doubt): as the sequence (Q96LB9 other isoform, or with tags, fused parts or gaps, form in doubt, chain 1 of 2) above
Chain of Type II 1.0 PGLYRP1 on HEK293 6E cells (human) (chain, as listed by the source limits assumed): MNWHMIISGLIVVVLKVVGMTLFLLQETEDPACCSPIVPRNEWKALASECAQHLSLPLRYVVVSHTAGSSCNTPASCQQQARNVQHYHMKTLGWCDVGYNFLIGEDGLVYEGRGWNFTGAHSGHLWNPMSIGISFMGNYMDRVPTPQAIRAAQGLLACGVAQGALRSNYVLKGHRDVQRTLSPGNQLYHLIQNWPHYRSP

In the case of DCIR COMP (6HIS-SBP38x2-COMP-hDCIR), the % positive cells (TREM-1 tetramer staining with competitor) in [1] is 41%.
“IsoAb (isotype control antibody of Example 18)” returned an Activity of BWZ/hTREM1 reporter cells with Type II 1.0 PGLYRP1 transfectants (without antibody: 100%) in assay [2] of 98%.
For the substance TREM COMP (hTREM-1-COMP-SBP38x2-6HIS), the % positive cells (TREM-1 tetramer staining with competitor) in [3] was determined as 10%.
Consider “Type II 1.0 PGLYRP1 on HEK293 6E cells (ligand)”, for which, in [4], the Fold activity of BWZ/hTREM1 reporter cells co-incubated with transfected HEK293 6E cells, without PGN, against empty vector amounted to 24 fold.
For the substance huTREM2.Fc dimer (C0248) (Fc fusion), the ratio of MFI of probe staining over negative control staining in assay [5], in [6] and in assay [7] was below 1 each time.
As for huTREM-1.Fc dimer (C0099) (Fc fusion), the ratio of MFI of probe staining over negative control staining is below 1 in assay [6], below 1 in assay [7] and above 30 in [8].
As for huTREML1.Fc dimer (C0246) (Fc fusion), the ratio of MFI of probe staining over negative control staining in [5], in [6] and in [7] was below 1 each time.
For the substance huTREML2.Fc dimer (C0247) (Fc fusion), the ratio of MFI of probe staining over negative control staining in [5], in [6] and in assay [7] was below 1 each time.
In the case of “human TREM-1-G4Sx3-TREM-1/Fc6mut (TREM-1 tetramer) (Fc fusion)”, in assay [9], the % positive cells turned out to be 39%.
